Results: patent US20040048314A1, “Novel physiologically active peptide and use thereof” (priority 2001, published 2004)

Key:
[1] = target: human type I5E receptor protein (human) (UniProt Q8NFJ6); assay: cell-based or functional assay; details: scale: times lower level than human type Bv8 peptide
[2] = system: ileum, distal colon, proximal colon; details: cited from earlier work
I5E receptor = target: T1, I5E receptor (Homo sapiens, UniProt Q8NFJ6); assay: Assay for the I5E receptor activating activity (intracellular Ca ion level increasing activity using FLIPR); format: cell-based; details: I5E receptor expression CHO cells
T1 construct: expressed in transfected cells; host or cells: CHO/dhfr- cells, clone No. 4 (I5E-4 cells), vector pAKKO1.11
T1 sequence (Q8NFJ6 whole entry): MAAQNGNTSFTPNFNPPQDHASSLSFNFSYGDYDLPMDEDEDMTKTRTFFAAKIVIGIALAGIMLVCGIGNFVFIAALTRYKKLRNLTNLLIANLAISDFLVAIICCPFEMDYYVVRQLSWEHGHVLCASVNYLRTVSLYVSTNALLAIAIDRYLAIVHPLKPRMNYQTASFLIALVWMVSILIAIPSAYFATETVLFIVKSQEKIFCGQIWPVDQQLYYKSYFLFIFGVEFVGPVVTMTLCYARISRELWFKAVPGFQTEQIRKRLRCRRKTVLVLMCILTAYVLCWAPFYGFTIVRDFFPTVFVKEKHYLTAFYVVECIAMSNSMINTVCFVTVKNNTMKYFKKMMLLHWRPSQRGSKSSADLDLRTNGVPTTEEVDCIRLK
Excerpt: Human I5E receptor cDNA (SEQ ID NO: 6) was cloned by PCR publicly known and incorporated into pAKKO1.11 expression vector. The expression vector was transfected to CHO/dhfr^− cells (American Type Culture Collection) by the method described in (2-1). About 20 colonies of the transfected CHO cells, which grew in 8 to 10 days after the initiation of culture, were selected. The selected cells were inoculated on a 96-well plate in 3×10^4 cells/well, and the reactivity on snake venom MIT1 (SEQ ID NO: 21) was examined by the test method described in (2-3) described hereinafter. No. 4 clone of the 15E-expressing CHO cells showing a good reactivity was selected (hereinafter abbreviated as 15E-4 cells).
The ZAQC-B1 obtained in (2-1) above and the 15E-4 cells obtained in (2-2) above were suspended in a medium (10% d FBS-DMEM), respectively, in 15×10^4 cells/ml and an aliquot of 200 μl was inoculated on a 96-well plate for FLIPR (Black plate clear bottom, Coster, Inc.) using a dispenser (3.0×10^4 cells/200 μl/well). After culturing overnight in a 5% CO2 incubator at 37° C., it was provided for use (hereinafter which was made a cell plate). […] By assaying a change in fluorescence intensity with passage of time, the intracellular Ca ion level increasing activity was measured. […]

guinea pig ileum = assay: Experiment on contraction using specimen removed from guinea pig ileum; details: for EC50: guinea pig ileum specimen, contraction induced by 1 μM acetylcholine taken as 100%, accumulative administration, read-out: EC50 of contraction response calculated from the dose-response curve
Experimental: Guinea pigs (std: Hartley, 7-8 weeks old, male, weighing about 450 g) weres bled to death by cutting the carotid artery and laparotomized to remove the ileum. The ileum was placed on a glass Petri dish charged with Tyrode solution (composition: 138 mM NaCl, 2.7 mM KCl, 1.8 mM CaCl2, 0.5 mM MgCl2, 1.1 mM NaH2PO4, 11.9 mM NaHCO3 and 5.6 mM glucose), which was bubbled with 95% O2-5% CO2 gas. After connective tissues or fat pieces adhered to the ileum were removed with scissors for surgery and tweezers, the ileum was cut into a size of about 1.5 cm long, which was used as specimen. The specimen was suspended in an organ bath (20 ml) filled with the Tyrode solution maintained at 37° C. and a load of 0.5 g was applied over 30 minutes or longer to stabilize the specimen. Contraction response of the ileum specimen was measured using AMPLIFIER CASE 7747 of NEC Sanei. After determination of the maximum contraction by administration of 1 μM acetylcholine, purified human type Bv8 peptide obtained by the method of REFERENCE EXAMPLE 1 with a modification or snake venom MIT1 was accumulatively administered to assay the contraction response. For dilution of human type Bv8 and MIT1, physiological saline containing 0.05% bovine serum albumin was employed.
The contraction response induced by human type Bv8 and MIT1 was shown by percentage, taking the contraction induced by 1 μM acetylcholine as 100%.

PI-3 kinase = details: cited from earlier work
ZAQ receptor = target: T2, ZAQ receptor (Homo sapiens, UniProt Q8TCW9); assay: Assay for the ZAQ receptor activating activity (intracellular Ca ion level increasing activity using FLIPR); format: cell-based
T2 construct: expressed in transfected cells; host or cells: CHO/dhfr- cells, clone ZAQC-B1 (plasmid pAK-ZAQC)
T2 sequence (Q8TCW9 whole entry): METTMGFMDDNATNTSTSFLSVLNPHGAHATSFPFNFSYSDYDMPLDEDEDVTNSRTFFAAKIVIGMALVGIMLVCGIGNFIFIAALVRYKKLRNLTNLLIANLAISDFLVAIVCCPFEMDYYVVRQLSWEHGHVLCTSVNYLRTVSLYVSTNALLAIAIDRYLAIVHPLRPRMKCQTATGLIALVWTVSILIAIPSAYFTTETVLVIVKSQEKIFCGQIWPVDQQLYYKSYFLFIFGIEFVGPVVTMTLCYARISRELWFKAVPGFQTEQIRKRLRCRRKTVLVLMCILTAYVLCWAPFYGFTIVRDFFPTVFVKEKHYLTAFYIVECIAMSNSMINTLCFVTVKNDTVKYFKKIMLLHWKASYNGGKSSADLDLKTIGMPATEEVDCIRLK
Experimental: The ZAQC-B1 obtained in (2-1) above and the 15E-4 cells obtained in (2-2) above were suspended in a medium (10% d FBS-DMEM), respectively, in 15×10^4 cells/ml and an aliquot of 200 μl was inoculated on a 96-well plate for FLIPR (Black plate clear bottom, Coster, Inc.) using a dispenser (3.0×10^4 cells/200 μl/well). After culturing overnight in a 5% CO2 incubator at 37° C., it was provided for use (hereinafter which was made a cell plate). Twenty milliliters of H/HBSS (9.8 g of Nissui Hanks 2 (Nissui Seiyaku Co., Ltd.), 0.35 g of sodium hydrogencarbonate and 4.77 g of HEPES; the pH was adjusted to 7.4 with 6 M sodium hydroxide solution followed by filter sterilization), 200 μl of 250 mM Probenecid and 200 μl of fetal bovine serum (FBS) were mixed. Also, 2 vials (50 μg) of Fluo 3-AM (Dojin Kagaku Kenkyusho) were dissolved in 40 μl of dimethylsulfoxide and 40 μl of 20% Pluronic acid (Molecular Probes Co., Ltd.). The solution was added to H/HBSS-Probenecid-FBS described above. After thoroughly mixing them, an aliquot of 100 μl was added to the medium-removed cell plate using an 8-channel pipette, followed by incubation in a 5% CO2 incubator at 37° C. for an hour (dye loading). […] By assaying a change in fluorescence intensity with passage of time, the intracellular Ca ion level increasing activity was measured. […]

MAP kinase = details: cited from earlier work

Chain of human type I5E receptor protein (human) (Q8NFJ6 whole entry): as the sequence (Q8NFJ6 whole entry) above

## snake venom Mamba Intestinal Toxin 1 (from UniProt P25687 1-80) (ligand)
[1]
  I5E receptor activating activity (intracellular calcium level, FLIPR): 10

B1: MIT1 (protein)
chain: AVITGACERDLQCGKGTCCAVSLWIKSVRVCTPVGTSGEDCHPASHKIPFSGQRMHHTCPCAPNLACVQTSPKKFKCLSK
[2]; compared with potassium chloride
  degree of contraction/relaxation: as potent as comparable to 40 mM potassium chloride
[2]; ileum, distal colon, proximal colon
  contraction or relaxation of intestinal tract: induced contraction in the ileum or distal colon, or relaxation in the proximal colon
I5E receptor; relative to human type Bv8 peptide
  level from which I5E receptor activating activity is exhibited, lower than that of human type Bv8 peptide: about 10 times
Guinea pig ileum
  EC50: 0.4 nM

B2: human type Bv8: Human type Bv8 mature peptide (81 amino acid residues, SEQ ID NO: 19) produced in Escherichia coli, … EXAMPLE 1 (protein)
chain: AVITGACDKDSQCGGGMCCAVSIWVKSIRICTPMGKLGDSCHPLTRKVPFFGRRMHHTCPCLPGLACLRTSFNRFICLAQ
PI-3 kinase
  PI-3 kinase activation: activates
ZAQ receptor; method of EXAMPLE 2 (2-3), receptor cell line not specified
  intracellular Ca ion level increasing activity using FLIPR, compared with CHO cell-derived recombinant preparation: equivalent to that of the CHO cell-derived recombinant preparation
Guinea pig ileum; as described in EXAMPLES
  intestinal tract contractile activity: has an intestinal tract contractile activity
Guinea pig ileum
  EC50: 0.57 nM
MAP kinase
  MAP kinase activation: activates

B3: human type Bv8 peptide: Human type Bv8 purified from CHO cell culture supernatant (EXAMPLE 3); C-terminal Lys-deficient mature peptide, SEQ ID NO: 22 (protein)
chain: AVITGACDKDSQCGGGMCCAVSIWVKSIRICTPMGKLGDSCHPLTRKVPFFGRRMHHTCPCLPGLACLRTSFNRFICLAQ
modifications: Human
ZAQ receptor; ZAQ receptor expression CHO cells, FLIPR, FIG. 9
  ZAQ receptor activating activity (intracellular calcium level): induced the intracellular calcium level concentration-dependently
I5E receptor; FLIPR, FIG. 10
  I5E receptor activating activity (intracellular calcium level): induced the intracellular calcium level concentration-dependently
